Self-aminoacylation data for 23 sequences are collected here from the supplement of paper PMC9233669.

Data set [1] deals with biotinyl-Val-oxazolone. Put plainly: self-aminoacylation, catalytic enhancement (BVO) (fold over background); higher = more active; k-Seq, kA / k0A0; sequences stand for … in GGGAAUGGAUCCACAUCUACGAAUUC…UUCACUGCAGACUUGACGAAGCUG
The gist of the method: (§1)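 The uncatalyzed rate is the low-activity peak of a bimodal Gaussian fit, and catalytic enhancement is median kA divided by it. The kA values came from pseudo-first-order fits, with 1000 bootstraps, of per-sequence fraction reacted measured by streptavidin capture, triplicate qPCR and Illumina sequencing. Mutagenized RNA pools with a 21-nt variable region (0.43 μM) were reacted with each biotinyl-aminoacyl-oxazolone at 2–1250 μM in 50 μL HEPES/NaCl/KCl/MgCl2/CaCl2 buffer with 5% acetonitrile, pH 6.9–7.0, for 90 minutes at room temperature.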

Data set [2] deals with biotinyl-Leu-oxazolone. Put plainly: self-aminoacylation, catalytic enhancement (BLO) (fold over background); higher = more active; k-Seq, kA / k0A0; sequences stand for … in GGGAAUGGAUCCACAUCUACGAAUUC…UUCACUGCAGACUUGACGAAGCUG
An outline of the steps:
as §1

The subject of data set [3] is biotinyl-Trp-oxazolone. As to the kind of experiment: self-aminoacylation, catalytic enhancement (BWO) (fold over background); higher = more active; k-Seq, kA / k0A0; sequences stand for … in GGGAAUGGAUCCACAUCUACGAAUUC…UUCACUGCAGACUUGACGAAGCUG
The gist of the method:
as §1

Data set [4] relates to biotinyl-Ile-oxazolone. As to the kind of experiment: self-aminoacylation, catalytic enhancement (BIO) (fold over background); higher = more active; k-Seq, kA / k0A0; sequences stand for … in GGGAAUGGAUCCACAUCUACGAAUUC…UUCACUGCAGACUUGACGAAGCUG
The gist of the method: as §1

Data set [5] relates to biotinyl-Phe-oxazolone. Put plainly: self-aminoacylation, catalytic enhancement (BFO) (fold over background); higher = more active; k-Seq, kA / k0A0; sequences stand for … in GGGAAUGGAUCCACAUCUACGAAUUC…UUCACUGCAGACUUGACGAAGCUG
An outline of the steps: as §1

The test system of data set [6] is biotinyl-Met-oxazolone. Put plainly: self-aminoacylation, catalytic enhancement (BMO) (fold over background); higher = more active; k-Seq, kA / k0A0; sequences stand for … in GGGAAUGGAUCCACAUCUACGAAUUC…UUCACUGCAGACUUGACGAAGCUG
The gist of the method: as §1

Variants at the floor of the assay were thinned out.

Turning to “AAGUUUGUUAAUAGUCUCAAG [Fam3.1 aminoacylation ribozyme variant]”, the self-aminoacylation in data set [1] is 1.15; in data set [2], 1.02; in data set [3], 1.23; in data set [4], 1.22; in data set [5], 1.62; in data set [6], 1.23.

In the case of “AAGUUUGCUAAUACUCGCUAG [Fam3.1 aminoacylation ribozyme variant]”, the self-aminoacylation in data set [1] was found to be 0.507; in data set [2] it was 0.594; in data set [3], 0.445; in data set [4], 0.63; in data set [5] it was 0.624; in data set [6] it was 0.532.

On to “AAGUUUGCUAAUAGUCGCCAG [Fam3.1 aminoacylation ribozyme variant]”, for which the self-aminoacylation in data set [1] amounted to 0.997; in data set [2], 0.962; in data set [3], 1.39; in data set [4], 1.02; in data set [5], 1.41; in data set [6] it was 1.03.

Regarding “CUACUUCAGAGAAUCGGUCUG [Fam1A.1 aminoacylation ribozyme variant]”, the self-aminoacylation in data set [1] is 0.806; in data set [2], 0.853; in data set [3] it was 0.7; in data set [4], 0.846; in data set [5], 0.895; in data set [6] it was 0.951.

As to “CGACACUUCAUGCAAUCGGUC [Fam1B.1 aminoacylation ribozyme variant]”, the self-aminoacylation in data set [1] stood at 1.17; in data set [2], 0.932; in data set [3], 0.973; in data set [4], 1.05; in data set [5], 1.34; in data set [6] it was 0.971.

As for “AAGUUUGCUAAUAAUCGGAAG [Fam3.1 aminoacylation ribozyme variant]”, the self-aminoacylation is 0.923 in data set [1]; 0.877 in data set [2]; 0.66 in data set [3]; 0.961 in data set [4]; 0.788 in data set [5]; 0.973 in data set [6].

Consider “AUUUCCCUGGUCUUCGAGUGA [Fam2.1 aminoacylation ribozyme variant]”, for which the self-aminoacylation is 4.6 in data set [1]; 7.28 in data set [2]; 9.21 in data set [3]; 4.33 in data set [4]; 47.9 in data set [5]; 6.94 in data set [6].

As for “AUUAACAUGGUCAUCGAGUGA [Fam2.1 aminoacylation ribozyme variant]”, the self-aminoacylation in data set [1] was determined as 3.23; in data set [2], 6.1; in data set [3], 8.43; in data set [4], 3.41; in data set [5], 26.1; in data set [6], 5.53.

In the case of “AAGUUUGCUAAUAGGUGCAAG [Fam3.1 aminoacylation ribozyme variant]”, the self-aminoacylation turned out to be 0.836 in data set [1]; 0.609 in data set [2]; 0.526 in data set [3]; 0.728 in data set [4]; 0.732 in data set [5]; 0.706 in data set [6].

Take “AUUCACCUAAGUCAUCGGGGG [Fam2.2 aminoacylation ribozyme variant]”: the self-aminoacylation in data set [1] came to 1.76; in data set [2], 2.5; in data set [3], 2.27; in data set [4] it was 1.92; in data set [5], 10.9; in data set [6], 2.48.

On to “UUACUUGAAACAAUCGGUCUG [Fam1A.1 aminoacylation ribozyme variant]”, for which the self-aminoacylation amounted to 1.03 in data set [1]; 1.11 in data set [2]; 0.889 in data set [3]; 1.15 in data set [4]; 1.52 in data set [5]; 1.32 in data set [6].

Take “AUUACCCUAGUCAUCGAGUGC [Fam2.1 aminoacylation ribozyme variant]”: the self-aminoacylation in data set [1] is 1.04; in data set [2], 1.35; in data set [3], 0.589; in data set [4], 1.15; in data set [5], 1.25; in data set [6], 1.06.

With “CCACACUUCAAGCACUCGGGC [Fam1B.1 aminoacylation ribozyme variant]”, the self-aminoacylation in data set [1] was determined as 3.61; in data set [2], 2.62; in data set [3], 3.37; in data set [4] it was 2.58; in data set [5], 13.2; in data set [6], 3.49.

As to “AUUACCCUGGUCAUCGCGUGU [Fam2.1 aminoacylation ribozyme variant]”, the self-aminoacylation in data set [1] amounted to 4.84; in data set [2], 9.06; in data set [3] it was 8.25; in data set [4] it was 4.14; in data set [5] it was 51.7; in data set [6], 8.31.

With “CGACUCUUCAAGCAAUCGGUC [Fam1B.1 aminoacylation ribozyme variant]”, the self-aminoacylation in data set [1] was found to be 1.32; in data set [2], 0.86; in data set [3], 3.07; in data set [4] it was 1.22; in data set [5] it was 3.23; in data set [6], 1.02.

Consider “CCACAAUUCAUGCAAUCGGUC [Fam1B.1 aminoacylation ribozyme variant]”, for which the self-aminoacylation in data set [1] came to 1.41; in data set [2], 1.16; in data set [3], 0.87; in data set [4], 1.25; in data set [5], 1.19; in data set [6] it was 1.1.

With “CUACUUCAAACAAGCGGACUG [Fam1A.1 aminoacylation ribozyme variant]”, the self-aminoacylation was 0.896 in data set [1]; 0.631 in data set [2]; 0.644 in data set [3]; 0.91 in data set [4]; 0.818 in data set [5]; 0.81 in data set [6].

On to “AUUACCCUGGCGAUCGAGUGA [Fam2.1 aminoacylation ribozyme variant]”, for which the self-aminoacylation in data set [1] worked out at 2.69; in data set [2], 4.77; in data set [3], 4.59; in data set [4], 2.12; in data set [5], 24.3; in data set [6] it was 4.06.

In the case of “AUUACCCUGGUCCGCGAGUGA [Fam2.1 aminoacylation ribozyme variant]”, the self-aminoacylation was determined as 6.47 in data set [1]; 11.5 in data set [2]; 11.5 in data set [3]; 6.07 in data set [4]; 53.1 in data set [5]; 10.5 in data set [6].

With “UUUCACCUAGGUCAUCGGAUG [Fam2.2 aminoacylation ribozyme variant]”, the self-aminoacylation in data set [1] came out at 1.36; in data set [2] it was 0.998; in data set [3], 1.12; in data set [4], 1.1; in data set [5], 0.842; in data set [6], 0.898.

As to “CCCAACUUCAAGCAAUCGGUC [Fam1B.1 aminoacylation ribozyme variant]”, the self-aminoacylation came to 1.74 in data set [1]; 2.34 in data set [2]; 40.9 in data set [3]; 1.56 in data set [4]; 78.4 in data set [5]; 1.49 in data set [6].

Regarding “CUACUACAAAGAAUCGGUCUG [Fam1A.1 aminoacylation ribozyme variant]”, the self-aminoacylation amounted to 0.54 in data set [1]; 0.775 in data set [2]; 0.8 in data set [3]; 0.781 in data set [4]; 0.547 in data set [5]; 0.788 in data set [6].

With “AUUCACCUAUGUCAUCGGAUG [Fam2.2 aminoacylation ribozyme variant]”, the self-aminoacylation was found to be 0.758 in data set [1]; 0.606 in data set [2]; 0.502 in data set [3]; 0.826 in data set [4]; 0.61 in data set [5]; 0.581 in data set [6].
